*1 amine or outer side, *2 acyl side, *3 side chain or, on linkers, in order; H or OH if unused. Where a SMILES comes first, the peptide text is derived from it. Bridges are numbered along the chain shown (N, C = ends). [ ]: non-standard residue; d: D form. Benzene(1,3-(CH2SCH2CO)2) = O=C(CSCc1cccc(CSCC(=O)[*:2])c1)[*:1]; X3 = O=C(CSCCCCCCCCSCC(=O)[*:2])[*:1]; X2 = O=C(CSCCCCCCCSCC(=O)[*:2])[*:1]; X1 = O=C(CSCCCCCCSCC(=O)[*:2])[*:1]; X4 = O=C(CSCCCCCSCC(=O)[*:2])[*:1]; S5 = C=CCCC[C@](C)(N)C(=O)O; dDap = NC[C@@H](N)C(=O)O; Dap = NC[C@H](N)C(=O)O
experiment: circular dichroism; conditions: water; pH ns; 25 °C; 70 uM

Question: For CC[C@H](C)[C@@H]1NC(=O)[C@@H](NC(=O)[C@H](CCC(=O)O)NC(=O)[C@@H]2CCCN2C(=O)[C@H](CC(N)=O)NC(=O)[C@H](CCC(=O)O)NC(C)=O)CNC(=O)CSCc2cccc(c2)CSCC(=O)NC[C@H](C(=O)N[C@@H](Cc2c[nH]cn2)C(=O)N[C@H](C(=O)N[C@@H](CCC(N)=O)C(=O)N[C@@H](CCCNC(=N)N)C(=O)N[C@H](C(=O)N[C@@H](CCSC)C(N)=O)C(C)C)C(C)C)NC(=O)[C@H](CC(=O)O)NC(=O)[C@H](CC(C)C)NC1=O, which helicity is on record?
Answer: Its helicity is 44%.

Question: For CC[C@H](C)[C@@H]1NC(=O)[C@H](NC(=O)[C@H](CCC(=O)O)NC(=O)[C@@H]2CCCN2C(=O)[C@H](CC(N)=O)NC(=O)[C@H](CCC(=O)O)NC(C)=O)CNC(=O)CSCc2cccc(c2)CSCC(=O)NC[C@@H](C(=O)N[C@@H](Cc2c[nH]cn2)C(=O)N[C@H](C(=O)N[C@@H](CCC(N)=O)C(=O)N[C@@H](CCCNC(=N)N)C(=O)N[C@H](C(=O)N[C@@H](CCSC)C(N)=O)C(C)C)C(C)C)NC(=O)[C@H](CC(=O)O)NC(=O)[C@H](CC(C)C)NC1=O, which helicity is on record?
Answer: Its helicity is 8%.

Question: With CC[C@H](C)[C@@H]1NC(=O)[C@@H](NC(=O)[C@H](CCC(=O)O)NC(=O)[C@@H]2CCCN2C(=O)[C@H](CC(N)=O)NC(=O)[C@H](CCC(=O)O)NC(C)=O)CNC(=O)CSCCCCCCCSCC(=O)NC[C@@H](C(=O)N[C@@H](Cc2c[nH]cn2)C(=O)N[C@H](C(=O)N[C@@H](CCC(N)=O)C(=O)N[C@@H](CCCNC(=N)N)C(=O)N[C@H](C(=O)N[C@@H](CCSC)C(N)=O)C(C)C)C(C)C)NC(=O)[C@H](CC(=O)O)NC(=O)[C@H](CC(C)C)NC1=O (Ac-ENPE[Dap]ILD[Dap]HVQRVM-NH2; linker 5-9 via X2) as the compound, how does the helicity read?
Answer: The helicity was 18%.

Question: Which helicity does the source give for CC[C@H](C)[C@@H]1NC(=O)[C@@H](NC(=O)[C@H](CCC(=O)O)NC(=O)[C@@H]2CCCN2C(=O)[C@H](CC(N)=O)NC(=O)[C@H](CCC(=O)O)NC(C)=O)CNC(=O)CSCCCCCCSCC(=O)NC[C@@H](C(=O)N[C@@H](Cc2c[nH]cn2)C(=O)N[C@H](C(=O)N[C@@H](CCC(N)=O)C(=O)N[C@@H](CCCNC(=N)N)C(=O)N[C@H](C(=O)N[C@@H](CCSC)C(N)=O)C(C)C)C(C)C)NC(=O)[C@H](CC(=O)O)NC(=O)[C@H](CC(C)C)NC1=O (Ac-ENPE[Dap]ILD[Dap]HVQRVM-NH2; linker 5-9 via X1) here?
Answer: Its helicity is 29%.

Question: For CC(=O)N[C@@H](CCC(N)=O)C(=O)N[C@@H](CO)C(=O)N[C@@H](CCC(N)=O)C(=O)N[C@@H](CCC(N)=O)C(=O)N[C@H](C(=O)N[C@@H](Cc1ccccc1)C(=O)N[C@H]1CNC(=O)CSCCCCCCCCSCC(=O)NC[C@H](C(=O)N[C@@H](CCC(N)=O)C(=O)N[C@@H](CC(N)=O)C(N)=O)NC(=O)[C@H](CC(C)C)NC(=O)[C@H](CC(C)C)NC(=O)[C@H](CCCNC(=N)N)NC(=O)[C@H](Cc2c[nH]c3ccccc23)NC(=O)[C@H](CC(C)C)NC(=O)[C@H](CC(N)=O)NC1=O)[C@@H](C)O, which helicity is on record?
Answer: The helicity was 37%.

Question: With CC(=O)N[C@@H](CCC(N)=O)C(=O)N[C@@H](CO)C(=O)N[C@@H](CCC(N)=O)C(=O)N[C@@H](CCC(N)=O)C(=O)N[C@H](C(=O)N[C@@H](Cc1ccccc1)C(=O)N[C@H]1CNC(=O)CSCCCCCCCCSCC(=O)NC[C@@H](C(=O)N[C@@H](CCC(N)=O)C(=O)N[C@@H](CC(N)=O)C(N)=O)NC(=O)[C@H](CC(C)C)NC(=O)[C@H](CC(C)C)NC(=O)[C@H](CCCNC(=N)N)NC(=O)[C@H](Cc2c[nH]c3ccccc23)NC(=O)[C@H](CC(C)C)NC(=O)[C@H](CC(N)=O)NC1=O)[C@@H](C)O as the compound, how does the helicity read?
Answer: The helicity was 42%.

Question: For CC[C@H](C)[C@@H]1NC(=O)[C@@](C)(NC(=O)[C@H](CCC(=O)O)NC(=O)[C@@H]2CCCN2C(=O)[C@H](CC(N)=O)NC(=O)[C@H](CCC(=O)O)NC(C)=O)CCCC=CCCC[C@@](C)(C(=O)N[C@@H](Cc2c[nH]cn2)C(=O)N[C@H](C(=O)N[C@@H](CCC(N)=O)C(=O)N[C@@H](CCCNC(=N)N)C(=O)N[C@H](C(=O)N[C@@H](CCSC)C(N)=O)C(C)C)C(C)C)NC(=O)[C@H](CC(=O)O)NC(=O)[C@H](CC(C)C)NC1=O (Ac-ENPE[S5]ILD[S5]HVQRVM-NH2; staple 5-9), which helicity is on record?
Answer: The helicity was 48%.

Question: With CC[C@H](C)[C@@H]1NC(=O)[C@@H](NC(=O)[C@H](CCC(=O)O)NC(=O)[C@@H]2CCCN2C(=O)[C@H](CC(N)=O)NC(=O)[C@H](CCC(=O)O)NC(C)=O)CNC(=O)CSCCCCCSCC(=O)NC[C@@H](C(=O)N[C@@H](Cc2c[nH]cn2)C(=O)N[C@H](C(=O)N[C@@H](CCC(N)=O)C(=O)N[C@@H](CCCNC(=N)N)C(=O)N[C@H](C(=O)N[C@@H](CCSC)C(N)=O)C(C)C)C(C)C)NC(=O)[C@H](CC(=O)O)NC(=O)[C@H](CC(C)C)NC1=O (Ac-ENPE[Dap]ILD[Dap]HVQRVM-NH2; linker 5-9 via X4) as the compound, how does the helicity read?
Answer: The helicity was 24%.

Question: Which helicity does the source give for CC[C@H](C)[C@@H]1NC(=O)[C@@H](NC(=O)[C@H](CCC(=O)O)NC(=O)[C@@H]2CCCN2C(=O)[C@H](CC(N)=O)NC(=O)[C@H](CCC(=O)O)NC(C)=O)CNC(=O)CSCc2ccc(cc2)CSCC(=O)NC[C@@H](C(=O)N[C@@H](Cc2c[nH]cn2)C(=O)N[C@H](C(=O)N[C@@H](CCC(N)=O)C(=O)N[C@@H](CCCNC(=N)N)C(=O)N[C@H](C(=O)N[C@@H](CCSC)C(N)=O)C(C)C)C(C)C)NC(=O)[C@H](CC(=O)O)NC(=O)[C@H](CC(C)C)NC1=O here?
Answer: The helicity was 17%.

Question: With CC(=O)N[C@@H](CCC(N)=O)C(=O)N[C@@H](CO)C(=O)N[C@@H](CCC(N)=O)C(=O)N[C@@H](CCC(N)=O)C(=O)N[C@H](C(=O)N[C@@H](Cc1ccccc1)C(=O)N[C@H]1CNC(=O)CSCc2ccc(cc2)-c2ccc(cc2)CSCC(=O)NC[C@@H](C(=O)N[C@@H](CCC(N)=O)C(=O)N[C@@H](CC(N)=O)C(N)=O)NC(=O)[C@H](CC(C)C)NC(=O)[C@H](CC(C)C)NC(=O)[C@H](CCCNC(=N)N)NC(=O)[C@H](Cc2c[nH]c3ccccc23)NC(=O)[C@H](CC(C)C)NC(=O)[C@H](CC(N)=O)NC1=O)[C@@H](C)O as the compound, how does the helicity read?
Answer: The helicity was 16%.

Question: With CC[C@H](C)[C@@H]1NC(=O)[C@@H](NC(=O)[C@@H](N)CCC(=O)O)CNC(=O)CSCc2cccc(c2)CSCC(=O)NC[C@@H](C(=O)N[C@@H](Cc2c[nH]cn2)C(=O)O)NC(=O)[C@H](CC(=O)O)NC(=O)[C@H](CC(C)C)NC1=O (H-E[Dap]ILD[Dap]H-OH; linker 2-6 via Benzene(1,3-(CH2SCH2CO)2)) as the compound, how does the helicity read?
Answer: The helicity was 41%.

Question: For CC[C@H](C)[C@@H]1NC(=O)[C@H](NC(=O)[C@H](CCC(=O)O)NC(=O)[C@@H]2CCCN2C(=O)[C@H](CC(N)=O)NC(=O)[C@H](CCC(=O)O)NC(C)=O)CNC(=O)CSCCCCCCCSCC(=O)NC[C@H](C(=O)N[C@@H](Cc2c[nH]cn2)C(=O)N[C@H](C(=O)N[C@@H](CCC(N)=O)C(=O)N[C@@H](CCCNC(=N)N)C(=O)N[C@H](C(=O)N[C@@H](CCSC)C(N)=O)C(C)C)C(C)C)NC(=O)[C@H](CC(=O)O)NC(=O)[C@H](CC(C)C)NC1=O (Ac-ENPE[dDap]ILD[dDap]HVQRVM-NH2; linker 5-9 via X2), which helicity is on record?
Answer: The helicity was 31%.

Question: Which helicity does the source give for CC[C@H](C)[C@@H]1NC(=O)[C@H](NC(=O)[C@H](CCC(=O)O)NC(=O)[C@@H]2CCCN2C(=O)[C@H](CC(N)=O)NC(=O)[C@H](CCC(=O)O)NC(C)=O)CNC(=O)CSCCCCCCCCSCC(=O)NC[C@@H](C(=O)N[C@@H](Cc2c[nH]cn2)C(=O)N[C@H](C(=O)N[C@@H](CCC(N)=O)C(=O)N[C@@H](CCCNC(=N)N)C(=O)N[C@H](C(=O)N[C@@H](CCSC)C(N)=O)C(C)C)C(C)C)NC(=O)[C@H](CC(=O)O)NC(=O)[C@H](CC(C)C)NC1=O (Ac-ENPE[dDap]ILD[Dap]HVQRVM-NH2; linker 5-9 via X3) here?
Answer: Its helicity is 5%.

Question: With CC[C@H](C)[C@@H]1NC(=O)[C@H](NC(=O)[C@H](CCC(=O)O)NC(=O)[C@@H]2CCCN2C(=O)[C@H](CC(N)=O)NC(=O)[C@H](CCC(=O)O)NC(C)=O)CNC(=O)CSCc2cccc(c2)CSCC(=O)NC[C@H](C(=O)N[C@@H](Cc2c[nH]cn2)C(=O)N[C@H](C(=O)N[C@@H](CCC(N)=O)C(=O)N[C@@H](CCCNC(=N)N)C(=O)N[C@H](C(=O)N[C@@H](CCSC)C(N)=O)C(C)C)C(C)C)NC(=O)[C@H](CC(=O)O)NC(=O)[C@H](CC(C)C)NC1=O as the compound, how does the helicity read?
Answer: The helicity was 13%.

Question: With CC[C@H](C)[C@@H]1NC(=O)[C@@H](NC(=O)[C@H](CCC(=O)O)NC(=O)[C@@H]2CCCN2C(=O)[C@H](CC(N)=O)NC(=O)[C@H](CCC(=O)O)NC(C)=O)CNC(=O)CSCc2cccc(c2)CSCC(=O)NC[C@@H](C(=O)N[C@@H](Cc2c[nH]cn2)C(=O)N[C@H](C(=O)N[C@@H](CCC(N)=O)C(=O)N[C@@H](CCCNC(=N)N)C(=O)N[C@H](C(=O)N[C@@H](CCSC)C(N)=O)C(C)C)C(C)C)NC(=O)[C@H](CC(=O)O)NC(=O)[C@H](CC(C)C)NC1=O as the compound, how does the helicity read?
Answer: The helicity was 46%.

Question: Which helicity does the source give for CC[C@H](C)[C@@H]1NC(=O)[C@@H](NC(=O)[C@H](CCC(=O)O)NC(=O)[C@@H]2CCCN2C(=O)[C@H](CC(N)=O)NC(=O)[C@H](CCC(=O)O)NC(C)=O)CNC(=O)CSCCCCCCCSCC(=O)NC[C@H](C(=O)N[C@@H](Cc2c[nH]cn2)C(=O)N[C@H](C(=O)N[C@@H](CCC(N)=O)C(=O)N[C@@H](CCCNC(=N)N)C(=O)N[C@H](C(=O)N[C@@H](CCSC)C(N)=O)C(C)C)C(C)C)NC(=O)[C@H](CC(=O)O)NC(=O)[C@H](CC(C)C)NC1=O (Ac-ENPE[Dap]ILD[dDap]HVQRVM-NH2; linker 5-9 via X2) here?
Answer: Its helicity is 25%.

Question: Which helicity does the source give for CC[C@H](C)[C@@H]1NC(=O)[C@H](NC(=O)[C@H](CCC(=O)O)NC(=O)[C@@H]2CCCN2C(=O)[C@H](CC(N)=O)NC(=O)[C@H](CCC(=O)O)NC(C)=O)CNC(=O)CSCCCCCCCSCC(=O)NC[C@@H](C(=O)N[C@@H](Cc2c[nH]cn2)C(=O)N[C@H](C(=O)N[C@@H](CCC(N)=O)C(=O)N[C@@H](CCCNC(=N)N)C(=O)N[C@H](C(=O)N[C@@H](CCSC)C(N)=O)C(C)C)C(C)C)NC(=O)[C@H](CC(=O)O)NC(=O)[C@H](CC(C)C)NC1=O (Ac-ENPE[dDap]ILD[Dap]HVQRVM-NH2; linker 5-9 via X2) here?
Answer: The helicity was 19%.

Question: Which helicity does the source give for CC[C@H](C)[C@@H]1NC(=O)[C@H](NC(=O)[C@H](CCC(=O)O)NC(=O)[C@@H]2CCCN2C(=O)[C@H](CC(N)=O)NC(=O)[C@H](CCC(=O)O)NC(C)=O)CNC(=O)CSCCCCCSCC(=O)NC[C@H](C(=O)N[C@@H](Cc2c[nH]cn2)C(=O)N[C@H](C(=O)N[C@@H](CCC(N)=O)C(=O)N[C@@H](CCCNC(=N)N)C(=O)N[C@H](C(=O)N[C@@H](CCSC)C(N)=O)C(C)C)C(C)C)NC(=O)[C@H](CC(=O)O)NC(=O)[C@H](CC(C)C)NC1=O (Ac-ENPE[dDap]ILD[dDap]HVQRVM-NH2; linker 5-9 via X4) here?
Answer: The helicity was 14%.

— article PMC8763920, “Unprotected peptide macrocyclization and stapling via a fluorine-thiol displacement reaction” (Nature Communications, 2022)
